Source: the supplement of paper PMC11246515
± gives the standard deviation of the averaged measurements.

Experiment: total protein half-life in vivo (active degradation + dilution); higher = more stable protein
[1] = E. coli NCM3722 delta-clpP delta-lon delta-hslV, growth: N-lim chemostat, doubling time 6 h
[2] = E. coli NCM3722 delta-clpP, growth: N-lim chemostat, doubling time 6 h
[3] = E. coli NCM3722 delta-hslV, growth: N-lim chemostat, doubling time 6 h
[4] = E. coli NCM3722 delta-lon, growth: N-lim chemostat, doubling time 6 h
[5] = E. coli NCM3722 delta-smpB, growth: N-lim chemostat, doubling time 6 h
[6] = wild type E. coli NCM3722, growth: C-lim chemostat, doubling time 3 h
[7] = wild type E. coli NCM3722, growth: C-lim chemostat, doubling time 6 h
[8] = wild type E. coli NCM3722, growth: C-lim chemostat, doubling time 12 h
[9] = wild type E. coli NCM3722, growth: N-lim chemostat, doubling time 6 h
[10] = wild type E. coli NCM3722, growth: N-lim chemostat, doubling time 12 h
[11] = wild type E. coli NCM3722, growth: P-lim chemostat, doubling time 6 h
[12] = wild type E. coli NCM3722, growth: P-lim chemostat, doubling time 12 h

Sequence | total protein half-life in vivo [1] [h] | total protein half-life in vivo [2] [h] | total protein half-life in vivo [3] [h] | total protein half-life in vivo [4] [h] | total protein half-life in vivo [5] [h] | total protein half-life in vivo [6] [h] | total protein half-life in vivo [7] [h] | total protein half-life in vivo [8] [h] | total protein half-life in vivo [9] [h] | total protein half-life in vivo [10] [h] | total protein half-life in vivo [11] [h] | total protein half-life in vivo [12] [h]
MRLIITFLMAWCLSWGAYAATAPDSKQITQELEQAKAAKPAQPEVVEALQSALNALEERKGSLERIKQYQQVIDNYPKLSATLRAQLNNMRDEPRSVSPGMSTDALNQEILQVSSQLLDKSRQAQQEQERAREIADSLNQLPQQQTDARRQLNEIERRLGTLTGNTPLNQAQNFALQSDSARLKALVDELELAQLSANNRQELARLRSELAEKESQQLDAYLQALRNQLNSQRQLEAERALESTELLAENSADLPKDIVAQFKINRELSAALNQQAQRMDLVASQQRQAASQTLQVRQALNTLREQSQWLGSSNLLGEALRAQVARLPEMPKPQQLDTEMAQLRVQRLRYEDLLNKQPLLRQIHQADGQPLTAEQNRILEAQLRTQRELLNSLLQGGDTLLLELTKLKVSNGQLEDALKEVNEATHRYLFWTSDVRPMTIAWPLEIAQDLRRLISLDTFSQLGKASVMMLTSKETILPLFGALILVGCSIYSRRYFTRFLERSAAKVGKVTQDHFWLTLRTLFWSILVASPLPVLWMTLGYGLREAWPYPLAVAIGDGVTATVPLLWVVMICATFARPNGLFIAHFGWPRERVSRGMRYYLMSIGLIVPLIMALMMFDNLDDREFSGSLGRLCFILICGALAVVTLSLKKAGIPLYLNKEGSGDNITNHMLWNMMIGAPLVAILASAVGYLATAQALLARLETSVAIWFLLLVVYHVIRRWMLIQRRRLAFDRAKHRRAEMLAQRARGEEEAHHHSSPEGAIEVDESEVDLDAISAQSLRLVRSILMLIALLSVIVLWSEIHSAFGFLENISLWDVTSTVQGVESLEPITLGAVLIAILVFIITTQLVRNLPALLELAILQHLDLTPGTGYAITTITKYLLMLIGGLVGFSMIGIEWSKLQWLVAALGVGLGFGLQEIFANFISGLIILFEKPIRIGDTVTIRDLTGSVTKINTRATTISDWDRKEIIVPNKAFITEQFINWSLSDSVTRVVLTIPAPADANSEEVTEILLTAARRCSLVIDNPAPEVFLVDLQQGIQIFELRIYAAEMGHRMPLRHEIHQLILAGFHAHGIDMPFPPFQMRLESLNGKQTGRTLTSAGKGRQAGSL | 6.45 ± 0.14 | 6.87 ± 1.2 | 6.3 ± 0.62 | 6.27 ± 0.29 | 5.67 ± 0.52 | 3.35 ± 0.12 | 6.73 ± 0.79 | 13.1 ± 1.4 | 6.49 ± 0.46 | 13.3 ± 2.1 | 5.95 ± 0.7 | 12.8 ± 0.24
MVSNASALGRNGVHDFILVRATAIVLTLYIIYMVGFFATSGELTYEVWIGFFASAFTKVFTLLALFSILIHAWIGMWQVLTDYVKPLALRLMLQLVIVVALVVYVIYGFVVVWGV [P0AC44] | – | – | 6.12 ± 0.19 | – | – | 3.03 ± 0.042 | 6.01 ± 0.4 | 12 ± 4.5 | 5.87 ± 0.39 | – | – | 12.5
MAISTPMLVTFCVYIFGMILIGFIAWRSTKNFDDYILGGRSLGPFVTALSAGASDMSGWLLMGLPGAVFLSGISESWIAIGLTLGAWINWKLVAGRLRVHTEYNNNALTLPDYFTGRFEDKSRILRIISALVILLFFTIYCASGIVAGARLFESTFGMSYETALWAGAAATILYTFIGGFLAVSWTDTVQASLMIFALILTPVIVIISVGGFGDSLEVIKQKSIENVDMLKGLNFVAIISLMGWGLGYFGQPHILARFMAADSHHSIVHARRISMTWMILCLAGAVAVGFFGIAYFNDHPALAGAVNQNAERVFIELAQILFNPWIAGILLSAILAAVMSTLSCQLLVCSSAITEDLYKAFLRKHASQKELVWVGRVMVLVVALVAIALAANPENRVLGLVSYAWAGFGAAFGPVVLFSVMWSRMTRNGALAGMIIGALTVIVWKQFGWLGLYEIIPGFIFGSIGIVVFSLLGKAPSAAMQKRFAEADAHYHSAPPSRLQES | 5.44 ± 0.019 | 4.61 ± 0.21 | 4.68 ± 0.42 | 4.66 | 4.592 ± 0.044 | 3.51 ± 0.45 | 5.52 ± 0.072 | 9.72 ± 1.1 | – | 7.25 ± 1.6 | 5.18 ± 0.42 | 10.6 ± 0.28
MNILQFNVRLAEGGAAGVALDLHQRALQQGLASHFVYGYGKGGKESVSHQNYPQVIKHTPRMTAMANIALFRLFNRDLFGNFNELYRTITRTAGPVVLHFHVLHSYWLNLKSVVRFCEKVKNHKPDVTLVWTLHDHWSVTGRCAFTDGCEGWKTGCQKCPTLNNYPPVKIDRAHQLVAGKRQLFREMLALGCQFISPSQHVADAFNSLYGPGRCRIINNGIDMATEAILADLPPVRETQGKPKIAVVAHDLRYDGKTNQQLVREMMALGDKIELHTFGKFSPFTAGNVVNHGFETDKRKLMSALNQMDALVFSSRVDNYPLILCEALSIGVPVIATHSDAAREVLQKSGGKTVSEEEVLQLVQLSKPEIAQAIFGTTLAEFSQRSRAAYSGQQMLEEYVNFYQNL | – | – | – | 5.88 ± 0.64 | 5.05 ± 0.76 | – | – | – | – | – | – | –
MNIRRKNRLWIACAVLAGLALTIGLVLYALRSNIDLFYTPGEILYGKRETQQMPEVGQRLRVGGMVMPGSVQRDPNSLKVTFTIYDAEGSVDVSYEGILPDLFREGQGVVVQGELEKGNHILAKEVLAKHDENYTPPEVEKAMEANHRRPASVYKDPAS | 5.21 ± 0.82 | 4.46 | 4.36 ± 0.36 | 4.62 ± 0.13 | 4.65 ± 0.1 | 2.91 ± 0.059 | 6.09 ± 0.43 | 8.92 ± 0.19 | 4.31 ± 0.63 | 9.42 ± 2.7 | 4.67 | 10.05 ± 0.046
MDKIEVRGARTHNLKNINLVIPRDKLIVVTGLSGSGKSSLAFDTLYAEGQRRYVESLSAYARQFLSLMEKPDVDHIEGLSPAISIEQKSTSHNPRSTVGTITEIHDYLRLLFARVGEPRCPDHDVPLAAQTVSQMVDNVLSQPEGKRLMLLAPIIKERKGEHTKTLENLASQGYIRARIDGEVCDLSDPPKLELQKKHTIEVVVDRFKVRDDLTQRLAESFETALELSGGTAVVADMDDPKAEELLFSANFACPICGYSMRELEPRLFSFNNPAGACPTCDGLGVQQYFDPDRVIQNPELSLAGGAIRGWDRRNFYYFQMLKSLADHYKFDVEAPWGSLSANVHKVVLYGSGKENIEFKYMNDRGDTSIRRHPFEGVLHNMERRYKETESSAVREELAKFISNRPCASCEGTRLRREARHVYVENTPLPAISDMSIGHAMEFFNNLKLAGQRAKIAEKILKEIGDRLKFLVNVGLNYLTLSRSAETLSGGEAQRIRLASQIGAGLVGVMYVLDEPSIGLHQRDNERLLGTLIHLRDLGNTVIVVEHDEDAIRAADHVIDIGPGAGVHGGEVVAEGPLEAIMAVPESLTGQYMSGKRKIEVPKKRVPANPEKVLKLTGARGNNLKDVTLTLPVGLFTCITGVSGSGKSTLINDTLFPIAQRQLNGATIAEPAPYRDIQGLEHFDKVIDIDQSPIGRTPRSNPATYTGVFTPVRELFAGVPESRARGYTPGRFSFNVRGGRCEACQGDGVIKVEMHFLPDIYVPCDQCKGKRYNRETLEIKYKGKTIHEVLDMTIEEAREFFDAVPALARKLQTLMDVGLTYIRLGQSATTLSGGEAQRVKLARELSKRGTGQTLYILDEPTTGLHFADIQQLLDVLHKLRDQGNTIVVIEHNLDVIKTADWIVDLGPEGGSGGGEILVSGTPETVAECEASHTARFLKPML [P0A698] | 6.85 ± 0.08 | 6.52 ± 0.27 | 6.32 ± 0.14 | 6.4 ± 0.084 | 5.66 ± 0.51 | 3.21 ± 0.095 | 6.19 ± 0.7 | 12.1 ± 0.6 | 6.24 ± 0.3 | 12.7 ± 0.13 | 6.273 ± 0.06 | 13.6 ± 0.84
MLELLYTALLYLIQPLIWIRLWVRGRKAPAYRKRWGERYGFYRHPLKPGGIMLHSVSVGETLAAIPLVRALRHRYPDLPITVTTMTPTGSERVQSAFGKDVQHVYLPYDLPDALNRFLNKVDPKLVLIMETELWPNLIAALHKRKIPLVIANARLSARSAAGYAKLGKFVRRLLRRITLIAAQNEEDGARFVALGAKNNQVTVTGSLKFDISVTPQLAAKAVTLRRQWAPHRPVWIATSTHEGEESVVIAAHQALLQQFPNLLLILVPRHPERFPDAINLVRQAGLSYITRSSGEVPSTSTQVVVGDTMGELMLLYGIADLAFVGGSLVERGGHNPLEAAAHAIPVLMGPHTFNFKDICARLEQASGLITVTDATTLAKEVSSLLTDADYRSFYGRHAVEVLYQNQGALQRLLQLLEPYLPPKTH [P0AC75] | 5.95 ± 0.12 | 6.64 ± 0.62 | 6.5 ± 0.35 | 6.08 ± 0.49 | 6.219 ± 0.038 | 3.23 ± 0.044 | 6.2 ± 0.5 | 10.6 ± 1.9 | 6.524 ± 0.011 | 13.7 ± 1.2 | 6.317 ± 0.014 | 11.9 ± 0.48
MKQGLQLRLSQQLAMTPQLQQAIRLLQLSTLELQQELQQALESNPLLEQIDTHEEIDTRETQDSETLDTADALEQKEMPEELPLDASWDTIYTAGTPSGTSGDYIDDELPVYQGETTQTLQDYLMWQVELTPFSDTDRAIATSIVDAVDETGYLTVPLEDILESIGDEEIDIDEVEAVLKRIQRFDPVGVAAKDLRDCLLIQLSQFDKTTPWLEEARLIISDHLDLLANHDFRTLMRVTRLKEDVLKEAVNLIQSLDPRPGQSIQTGEPEYVIPDVLVRKHNGHWTVELNSDSIPRLQINQHYASMCNNARNDGDSQFIRSNLQDAKWLIKSLESRNDTLLRVSRCIVEQQQAFFEQGEEYMKPMVLADIAQAVEMHESTISRVTTQKYLHSPRGIFELKYFFSSHVNTEGGGEASSTAIRALVKKLIAAENPAKPLSDSKLTSLLSEQGIMVARRTVAKYRESLSIPPSNQRKQLV | 5.34 ± 0.089 | 4.45 ± 0.42 | 3.48 ± 0.12 | 4.78 ± 0.64 | 3.657 ± 0.022 | 2.57 ± 0.1 | 4.75 ± 0.098 | 7.27 ± 1.6 | 3.94 ± 0.43 | 5.68 ± 0.088 | 3.61 ± 0.56 | 6.22 ± 0.58
MKTINTVVAAMALSTLSFGVFAAEPVTASQAQNMNKIGVVSADGASTLDALEAKLAEKAAAAGASGYSITSATNNNKLSGTAVIYK [P0AAX3] | – | – | – | – | 0.346 | – | – | – | – | – | – | –
MKIITCYKCVPDEQDIAVNNADGSLDFSKADAKISQYDLNAIEAACQLKQQAAEAQVTALSVGGKALTNAKGRKDVLSRGPDELIVVIDDQFEQALPQQTASALAAAAQKAGFDLILCGDGSSDLYAQQVGLLVGEILNIPAVNGVSKIISLTADTLTVERELEDETETLSIPLPAVVAVSTDINSPQIPSMKAILGAAKKPVQVWSAADIGFNAEAAWSEQQVAAPKQRERQRIVIEGDGEEQIAAFAENLRKVI | – | – | – | – | – | 2.81 ± 0.21 | 5.04 | 10.2 | – | – | – | –
MILHAQAKHGKPGLPWLVFLHGFSGDCHEWQEVGEAFADYSRLYVDLPGHGGSAAISVDGFDDVTDLLRKTLVSYNILDFWLVGYSLGGRVAMMAACQGLAGLCGVIVEGGHPGLQNAEQRAERQRSDRQWVQRFLTEPLTAVFADWYQQPVFASLNDDQRRELVALRSNNNGATLAAMLEATSLAVQPDLRANLSARTFAFYYLCGERDSKFRALAAELAADCHVIPRAGHNAHRENPAGVIASLAQILRF | – | – | – | – | – | 3.44 | – | – | – | – | – | –
MLLSIITVAFRNLEGIVKTHASLAHLAQVEDISFEWIVVDGGSNDGTREYLENLNGIFNLRFVSEPDNGIYDAMNKGIAMAQGKFALFLNSGDIFHQNAANFVRKLKMQKDNVMITGDALLDFGDGHKIKRSAKPGWYIYHSLPASHQAIFFPVSGLKKWRYDLEYKVSSDYALAAKMYKAGYAFKKLNGLVSEFSMGGVSTTNNMELCADAKKVQRQILHVPGFWAELSWHLRQRTTSKTKALYNKV | 4.85 ± 0.28 | – | – | 1.5 ± 0.23 | 0.818 ± 0.0095 | – | – | – | – | – | – | –
